Data as given in patent publication US20140220040A1 (ARCA BIOPHARMA, published 2014).

T1: Human LRP6-Fc (R&D Systems), recombinant human LRP6 containing the complete extracellular domain (human, UniProt O75581 20-1370)
T1 construct: Bought protein; also called hLRP6; Fc-antigen; not shown: Fc part of the bought fusion protein
T1 sequence: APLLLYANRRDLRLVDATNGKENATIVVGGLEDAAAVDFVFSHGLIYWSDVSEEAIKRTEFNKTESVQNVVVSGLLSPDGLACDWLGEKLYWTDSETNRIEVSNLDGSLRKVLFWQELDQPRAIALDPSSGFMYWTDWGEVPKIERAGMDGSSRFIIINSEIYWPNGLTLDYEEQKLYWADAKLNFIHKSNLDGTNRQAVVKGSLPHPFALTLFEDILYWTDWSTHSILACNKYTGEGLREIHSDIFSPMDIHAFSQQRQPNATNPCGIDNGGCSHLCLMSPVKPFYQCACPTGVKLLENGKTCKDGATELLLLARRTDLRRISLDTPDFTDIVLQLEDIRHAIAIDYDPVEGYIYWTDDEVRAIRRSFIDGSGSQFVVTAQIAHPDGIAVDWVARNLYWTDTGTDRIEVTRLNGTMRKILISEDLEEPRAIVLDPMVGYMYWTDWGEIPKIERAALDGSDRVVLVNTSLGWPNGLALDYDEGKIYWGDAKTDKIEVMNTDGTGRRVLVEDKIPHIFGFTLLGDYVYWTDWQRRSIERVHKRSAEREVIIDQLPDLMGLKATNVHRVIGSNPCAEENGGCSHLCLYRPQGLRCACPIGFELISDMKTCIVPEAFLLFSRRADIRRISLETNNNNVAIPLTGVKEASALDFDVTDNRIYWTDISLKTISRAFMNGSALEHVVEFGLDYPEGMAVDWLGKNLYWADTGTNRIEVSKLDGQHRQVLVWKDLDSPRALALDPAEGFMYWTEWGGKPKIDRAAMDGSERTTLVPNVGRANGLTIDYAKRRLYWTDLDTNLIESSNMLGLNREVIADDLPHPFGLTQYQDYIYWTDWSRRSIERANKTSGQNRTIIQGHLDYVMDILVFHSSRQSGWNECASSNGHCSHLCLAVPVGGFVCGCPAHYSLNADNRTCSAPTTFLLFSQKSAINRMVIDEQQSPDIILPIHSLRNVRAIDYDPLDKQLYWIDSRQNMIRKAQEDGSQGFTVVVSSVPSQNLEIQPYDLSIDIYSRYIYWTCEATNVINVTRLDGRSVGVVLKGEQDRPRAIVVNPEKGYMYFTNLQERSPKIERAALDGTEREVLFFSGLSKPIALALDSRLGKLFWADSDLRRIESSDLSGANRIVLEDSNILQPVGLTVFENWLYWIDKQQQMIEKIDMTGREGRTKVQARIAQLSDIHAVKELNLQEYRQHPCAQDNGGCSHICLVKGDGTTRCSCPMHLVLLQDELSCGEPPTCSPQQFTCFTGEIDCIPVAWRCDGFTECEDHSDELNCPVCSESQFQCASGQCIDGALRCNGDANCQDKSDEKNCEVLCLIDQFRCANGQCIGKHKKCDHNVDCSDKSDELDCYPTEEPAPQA

B1: anti-LRP6 monoclonal antibody 931.1 (antibody, V domains shown)
VH: DVNLVESGGGLVKLGGSLKLSCAASGFTFSSFYMSWVRQTPEKRLDLVATINTNGGSTYYSDTVKGRFTISRDNAKNTLYLQMNSLKSEDTALFYCVRQPYYGGTMDYWGQGTSVTVSS
VL: DIVLTQSPATLSVTPGDRVSLSCRASQSINNNLHWYQQKSHESPRLLIKYASQSISGIPSRFSGSGSGTDFTLSINSVETEDFGMYFCQQTNNWPLTFGAGTKLEL
notes: Murine hybridoma mAb, protein G purified; also called VH13/VL13
B2: anti-LRP6 monoclonal antibody 77.2 (antibody, V domains shown)
VH: QVQLQQSGAELAKPGASVKMSCKASGYTFTSYWMHWVKQRPGQGLEWIGYINPSTGYTEYNQNFRDKATLTADKSSSTANMQLSSLTSEDSAVYYCARTAQYYGSPRGYYAMDSWGQGTSVTVSS
VL: DIVMTQAAFSNPVTLGTSASISCRSSKSLLHSNGITYLCWFLQKPGQSPQLLIYLMSNLASGVPDRFSSSGSGTDFTLRISRVEAEDVGVYFCAQNLDLPWTFGGGTKLEI
notes: Murine hybridoma mAb, protein G purified; also called mAb 77.2; VH1/VL1
B3: anti-LRP6 monoclonal antibody 1281.1 (antibody, V domains shown)
VH: QVQLQQSGAELAKPGASVKISCKASGYTFTSYWMHWVKQRPGQGLEWIGYINPNTGYSEYNQKFRDKATLTANKSSSTANMQLSSLTSDDSAVYYCARTAQYYGSPRGYYAMDSWGQGTSVTVSS
VL: DIVMTQAAFSNPVTLGTSASISCRSSKSLLHSNGITYLCWFLQKPGQSPQLLIYQMSNLASGVPDRFSSSGSGTDFTLRISRVEAEDVGVYFCAQNLDLPWTFGGGTKLEI
notes: Murine hybridoma mAb, protein G purified; also called VH19/VL19
B4: anti-LRP6 monoclonal antibody 213.7 (antibody, V domains shown)
VH: DVKLVESGGGLVKVGGSLKLSCAASGFTFSSYYMSWVRQTPEKRLELVAVINTNGGSTYYSDTVKGRFTISRDNAKNTLYLQMSSLKSEDTALYYCSRQPYYGNPFDYWGQGTTLTVSS
VL: DIVLTQSPATLSVTPGDSVSLSCRASQSISNNLHWYQQKSHESPRLLIKYVSQSISGIPSRFSGSGSGTDFTLSINSVETEDFGMYFCQQSNNWPLTFGAGTKLEL
notes: Murine hybridoma mAb, protein G purified; also called VH3/VL3
B5: anti-LRP6 monoclonal antibody 606.4 (antibody, V domains shown)
VH: DVKLVESGGGLVKVGGSLKLSCAASGFTFSSYYMSWVRQTPEKRLELVAVINSNGGSTYYSETVKGRFTISRDNAKNTLYLQMSSLKSEDTALYYCSRQPYYGNPFDYWGQGTTLTVSS
VL: DIVLTQSPATLSVTPGDSVSLSCRASQSISNNLHWYQQKSHESPRLLIKYVSQSISGIPSRFSGSGSGTDFTLSINSVETEDFGMYFCQQSNNWPLTFGAGTKLEL
notes: Murine hybridoma mAb, protein G purified; also called VH9/VL9
B6: anti-LRP6 monoclonal antibody 240.8 (antibody, V domains shown)
VH: DVKLVESGGGLVKLGGSLKLSCAASGFTFSSYYMSWVRQTPEKRLELVAAINSNGGSTYYADTMKGRFTISRDNAKNTLYLQMISLKSEDTAFYYCASELAGYGTPFAYWGHGTLVTVSA
VL: DIVLTQFPATLSVTPGDSVSLSCRASQSISSNLHWYQQTSHESPRLLIKYASQSISGIPSRFSGTGSGTDFTLSINSVETEDFGMYFCQQSNTWPLTFGAGTKLEL
notes: Murine hybridoma mAb, protein G purified; also called VH4/VL4
B7: anti-LRP6 monoclonal antibody 923.3 (antibody, V domains shown)
VH: DVKLVESGGGLVKVGGSLKLSCAASGFTFSSYYMSWVRQTPEKRLELVAAININGGSTYYPDTVKGRFTISRDNAKNTLYLQMSSLKSEDTAFYYCASELAGYGTPFAYWGQGTLVTVSA
VL: DIVLTQSPATLSVTPGDSVSLSCRASQSISNNLHWYQQKSHESPRLLIKYASQSISGIPSRFSGSGSGTDFTLSINSVETEDFGMYFCQQSNNWPLTFGAGTKLEL
notes: Murine hybridoma mAb, protein G purified; also called VH12/VL12
B8: anti-LRP6 monoclonal antibody 413.1 (antibody, V domains shown)
VH: EIQLQQSGPELVKPGASVKVSCKASGYAFTSYNMYWVKQSHGKGLEWIGYIDPYNGGTDSNQNFKGKATLTVDKSSSTAFMHLNSLTSEDSAVYYCARGGMGLRRDHFDYWGQGTSLTVSS
VL: QIVLTQSPAIMSASPGEKVTISCSANSSVRYMFWYQQKPGSFPKPWTYRTSNLASGVPARFSGSGSGTSYSLTISSMEAEDVATYYCQQYHSYPWTFGGGTKLEI
notes: Murine hybridoma mAb, protein G purified; also called VH5/VL5
B9: anti-LRP6 monoclonal antibody 421.1 (antibody, V domains shown)
VH: QVQLQQSGPELVKPGASVRISCKASGYTFTTYYIHWLKQRPGQGLEWIGWIFPGNVNTKYNAKFKGKATLTADKSSSTAYMQLSSLTSEDSAVYFCAREELQYYFDYWGQGSTLTVSS
VL: QIVLTQSPAIMSASPGEKVTISCSANSSVRFMFWYQQKPGSSPKPLIYRTSNLASGVPARFSGCGSGTSYSLTISSMEAEDAATYYCQQYHSYPWTFGGGTKLEI
notes: Murine hybridoma mAb, protein G purified; also called VH6/VL6
B10: anti-LRP6 monoclonal antibody 498.3 (antibody, V domains shown)
VH: DVKLVESGGGLVRLGGSLKLSCAASGFTFSTYYMSWVRQTPEKRLELVATINTNGGSTYYPDTLKGRFTISRDNAKNTLYLQMSSLRSEDTALYYCARQRNYGVAVDSWGQGTSVTVSS
VL: DIVLTQSPATLSVTPGDSVSLSCRASQSISNNLHWYQQKSHESPRLLIKYASQSISGIPSRFSGSGSGTDFTLSINSVETEDFGMYFCQQTNNWPLTFGAGTKLER
notes: Murine hybridoma mAb, protein G purified; also called VH7/VL7
B11: anti-LRP6 monoclonal antibody 537.2 (antibody, V domains shown)
VH: DVQLQESGPGLVKPSQSLSLTCSVTGYSITSGYYWNWIRQFPGDKLEWMGHINYDGRDNYNPSLKNRISITRDTSKNQFFLKLNSVTTEDTATYYCAREFGNFPYYFDYWGQGTTLTVSS
VL: QIVLTQSPAIMSASPGEKVTISCSAYSSVRFMFWYQQKPGSSPKPLIYRTSNLASGVSARFSGSGSGTSYSLTISSMEAEDAATYYCQQYHSYPWTFGGGTKLEI
notes: Murine hybridoma mAb, protein G purified; also called VH8/VL8
B12: anti-LRP6 monoclonal antibody 620.1 (antibody, V domains shown)
VH: EIQLQQSGPELVKPGASVKVSCKASGYAFTSYNMYWVKQSHGKSLEWIGYIDPYNGGTNYNQKFKGKATLTVDKSSSTAYMHLNSLTSEDSAVYYCARGGMGLRRDYFDFWGQGTTLTVSS
VL: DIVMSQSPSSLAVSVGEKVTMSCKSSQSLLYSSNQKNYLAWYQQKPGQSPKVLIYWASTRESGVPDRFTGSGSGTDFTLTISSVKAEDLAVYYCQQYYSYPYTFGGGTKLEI
notes: Murine hybridoma mAb, protein G purified; also called VH10/VL10
B13: anti-LRP6 monoclonal antibody 856.6 (antibody, V domains shown)
VH: QVQLQQSGPELVKPGASVRISCKASGYTFTTYYIHWLKQRPGQGLEWIGWIFPGNVNTKYNAKFKGKATLTADKSSSTAYMQLSSLTSEDSAVYFCAREGLQYYFDYWGQGTTLTVSS
VL: QIVLTQSPAIMSASPGEKVTISCSANSSVRFMFWYQQKPGSSPKPLIYRTSNLASGVPARFSGSGSGTSYSLTISSMEAEDAATYYCQQYHSYPWTFGGGTKLEI
notes: Murine hybridoma mAb, protein G purified; also called VH11/VL11
B14: anti-LRP6 monoclonal antibody 1253.12 (antibody, V domains shown)
VH: QVQLQQSGPELVMPGASVRISCKASGYTFTNYYLHWVKQRPGQGLEWIGWIYPGNVNTKYNEKFKGKASLTADKSSSTAYMQLSSLTSEDSAVYFCAREGLQYYFDYWAQGTTLTVSS
VL: QIVLTQSPAIMSASPGEKVTISCSANSSVRYMFWYQQKPGSFPKPWIYRTSNLASGVPARFSGSGSGTSYSLTISSMEAEDVATYYCQQYHSYPWTFGGGTKLEI
notes: Murine hybridoma mAb, protein G purified; also called VH18/VL18
B15: anti-LRP6 monoclonal antibody 1293.11 (antibody, V domains shown)
VH: QVQLQQSGPELVKPGASVRISCKASGYTFTTYYIHWLKQRPGQGLEWIGWIFPGNVNTKYNAKFKGKATLTADKSSSTAYMQLSSLTSEDSAVYFCAREELQYYFDYWGQGSALTVSS
VL: QIVLTQSPAIMSASPGEKVTISCSANSSVRFMFWYQQKPGSSPKPLIYRTSNLASGVPARFSGSGSGTSYSLTISSMEAEDAATYYCQQYHSYPWTFGGGTKLEI
notes: Murine hybridoma mAb, protein G purified; also called VH20/VL20

Molecular target: T1, Human LRP6-Fc (R&D Systems), …
Assay: SPR (BIAcore), mAb captured on anti-mouse chip, Fc-antigen injected, 1:1 model
Protocol: Kinetic rate constants (kₐ and kd) were determined using surface plasmon resonance, and affinities (KD) were then calculated from the rate constants (kd/kₐ). Surface plasmon resonance was carried out on a BIAcore system (Biacore International AB, Uppsala, Sweden). Each murine anti-LRP6 mAb sample was diluted 100 fold and captured onto an anti-mouse sensor chip surface. The running buffer contained 10 mM HEPES, 150 mM NaCl, 0.005% Tween-20 and 0.1 mg/ml BSA. Following the capturing step, the Fc-antigen was injected at 45 nM as the highest concentration in a 3-fold dilution series. The association and dissociation phases were monitored for 8 and 60 minutes, respectively. The antigen response data were fit into a 1:1 interaction model.

In order of rising Kd:
1. B2  0.55 nM
2. B11  0.9 nM
3. B13  0.95 nM
4. B10  0.98 nM
5. B5  1.08 nM
6. B1  1.12 nM
7. B4  1.72 nM
8. B12  1.73 nM
9. B3  1.83 nM
10. B14  2.15 nM
11. B7  2.33 nM
12. B9  3.2 nM
13. B6  6.55 nM
14. B8  18 nM
15. B15  57 nM

In order of falling koff:
1. B15  0.000124 s⁻¹
2. B9  0.000114 s⁻¹
3. B4  9.6e-05 s⁻¹
4. B8  8.47e-05 s⁻¹
5. B3  8.3e-05 s⁻¹
6. B12  7.7e-05 s⁻¹
7. B7  7.4e-05 s⁻¹
8. B14  7.3e-05 s⁻¹
9. B1  6.3e-05 s⁻¹
10. B5  5.7e-05 s⁻¹
11. B10  5e-05 s⁻¹
12. B13  4.5e-05 s⁻¹
13. B6  4e-05 s⁻¹
14. B2  3.5e-05 s⁻¹
15. B11  3.15e-05 s⁻¹

In order of rising kon:
1. B15  2200 M⁻¹ s⁻¹
2. B8  4700 M⁻¹ s⁻¹
3. B6  6110 M⁻¹ s⁻¹
4. B7  31600 M⁻¹ s⁻¹
5. B14  34000 M⁻¹ s⁻¹
6. B11  35200 M⁻¹ s⁻¹
7. B9  35400 M⁻¹ s⁻¹
8. B12  44600 M⁻¹ s⁻¹
9. B3  45500 M⁻¹ s⁻¹
10. B13  47400 M⁻¹ s⁻¹
11. B10  50500 M⁻¹ s⁻¹
12. B5  53200 M⁻¹ s⁻¹
13. B4  55600 M⁻¹ s⁻¹
14. B1  56300 M⁻¹ s⁻¹
15. B2  63200 M⁻¹ s⁻¹
